Assay results from publication PMC2270323, “Phosphorylation-Independent Regulation of the Diguanylate Cyclase WspR” (PLoS Biology, 2008).
Where a chain is given by its changes, count along the chain named. Numbers in names are those of the source. Where “and” joins values, the source holds several entries; their conditions need not be identical. Equal entries are not always repeated.

What was measured:
[1] = target: WspR from P. syringae DC3000 (full length) (P. syringae DC3000); test: crystal structure; unpublished data: crystal structure of the WspR homolog from P. syringae
[2] = target: the molecule itself; test: crystal structure; c-di-GMP-bound full-length WspR, 2.4 Å, space group C2, two molecules in the asymmetric unit; hanging drop, 0.1 M Tris-Cl pH 8.0, 2.9 M NaCl, 15% xylitol, 20 °C
[3] = target: the molecule itself; test: SEC; c-di-GMP-bound protein as purified, 0.24 mM; Superdex 200 10/300; 25 mM Tris-Cl pH 7.5, 100 mM NaCl, 1 mM DTT
[4] = target: the molecule itself; test: SEC-MALS; stalk mutants as purified (c-di-GMP bound), approximately 0.1 mM; Shodex KW-803; 25 mM Tris-Cl pH 7.5, 100 mM NaCl, 1 mM DTT
[5] = target: the molecule itself; test: SEC-MALS; nucleotide-free mutants as purified, 4 mg/ml (approximately 0.1 mM); Shodex KW-803; 25 mM Tris-HCl pH 7.5, 100 mM NaCl, 1 mM DTT
[6] = target: the molecule itself; test: SEC; unpublished data: lysates of E. coli expressing WspR^R242A or WspR^GGAAF, gel filtration
[7] = target: the molecule itself; test: SEC; nucleotide-free protein (wild type: PDE-treated, PDE and nucleotide removed; GGAAF as purified), 0.08-0.24 mM; Superdex 200 10/300; 25 mM Tris-Cl pH 7.5, 100 mM NaCl, 1 mM DTT; distribution depends on protein concentration

## WspR from P. syringae DC3000 (full length) (enzyme)
[1]
  stoichiometry N: 4

B1: WspR from P. aeruginosa, wild type (full length) (enzyme)
chain: MHNPHESKTDLGAPLDGAVMVLLVDDQAMIGEAVRRSLASEAGIDFHFCSDPQQAVAVANQIKPTVILQDLVMPGVDGLTLLAAYRGNPATRDIPIIVLSTKEEPTVKSAAFAAGANDYLVKLPDAIELVARIRYHSRSYIALQQRDEAYRALRESQQQLLETNLVLQRLMNSDGLTGLSNRRHFDEYLEMEWRRSLREQSQLSLLMIDVDYFKSYNDTFGHVAGDEALRQVAGAIREGCSRSSDLAARYGGEEFAMVLPGTSPGGARLLAEKVRRTVESLQISHDQPRPGSHLTVSIGVSTLVPGGGGQTFRVLIEMADQALYQAKNNGRNQVGLMEQPVPPAPAG
notes: the nucleotide-free form was made by treatment with the PDE SadR/RocR and repurification; The nucleotide state is told in each assay's format; also called WspR^wt; PA3702; source: E. coli BL21(DE3), purified (NiNTA, SEC); also E. coli BL21, in lysate; not shown: His6, C-terminal, kept
[2]
  stoichiometry N: 4
[3]
  stoichiometry N: 2

B2: WspR^L170D (stalk mutant of P. aeruginosa WspR) (enzyme)
chain: B1 chain with L170D
notes: WspR, P. aeruginosa PAO1, locus tag PA3702, with L170D; source: E. coli, purified
[4]
  stoichiometry N: 2 and 4

B3: WspR^R242A (I-site mutant of P. aeruginosa WspR) (enzyme)
chain: B1 chain with R242A
notes: WspR, P. aeruginosa PAO1, locus tag PA3702, with R242A; Purifies essentially nucleotide-free; source: E. coli BL21(DE3), purified (NiNTA, SEC); also E. coli BL21, in lysate; not shown: His6, C-terminal, kept
[5]
  stoichiometry N: 4
[6]
  stoichiometry N: 2

B4: WspR^GGAAF (catalytically dead mutant of P. aeruginosa WspR) (enzyme)
chain: B1 chain with E253A, E254A
notes: WspR, P. aeruginosa PAO1, locus tag PA3702; the two central glutamates of the GGEEF motif (residues 251-255) replaced by alanines; Purifies nucleotide-free; source: E. coli BL21(DE3), purified (NiNTA, SEC); also E. coli BL21, in lysate; not shown: His6, C-terminal, kept
[7]
  stoichiometry N: 4 and 2

B5: WspR^R198A (I-site mutant of P. aeruginosa WspR) (enzyme)
chain: B1 chain with R198A
notes: WspR, P. aeruginosa PAO1, locus tag PA3702, with R198A; Purifies essentially nucleotide-free; source: E. coli BL21(DE3), purified (NiNTA, SEC)
[5]
  stoichiometry N: 2 and 4
